{
  "source": "paper PMC11287377",
  "about": "“tRNA ^Arg binds in vitro TDP-43 RNA recognition motifs and ligand of Ate1 protein LIAT1” (microPublication Biology, 2024)",
  "data": [
    {"molecular_target": "the molecule itself", "experiment": "SEC; 500 uL of tagless purified protein on Superdex 75 10/30 in SEC buffer (150 mM KCl, 20 mM NaCl, 1 mM MgCl2, 5% glycerol, 50 mM HEPES pH 7.7), 0.5 mL/min; size from a calibration curve of standard proteins", "values": [
      {"protein": "human TDP-43 NTD (residues 1-85) (domain or fragment, UniProt Q13148 1-85, looked up, Tags removed with TEV protease; also called hTDP-43 NTD; source: E. coli BL21 KRX, purified (NiNTA, TEV digestion, SEC)) MSEYIRVTEDENDEPIEIPSEDDGTVLLSTVTAQFPGACGLRYRNPVSQCMRGVRLVEGILHAPDAGWGNLVYVVNYPKDNKRKM", "stoichiometry N": 2},
      {"protein": "human TDP-43 NTD-ΔNLS-RRM1-RRM2 (residues 1-85 and 101-266) (domain or fragment, UniProt Q13148 1-85, looked up, Internal deletion of the NLS linker (residues 86-100); no replacing linker is mentioned; Tags removed with TEV protease; also called hTDP-43 NTD-ΔNLS-RRM1-RRM2; source: E. coli BL21 KRX, purified (NiNTA, TEV digestion, SEC)) MSEYIRVTEDENDEPIEIPSEDDGTVLLSTVTAQFPGACGLRYRNPVSQCMRGVRLVEGILHAPDAGWGNLVYVVNYPKDNKRKMQKTSDLIVLGLPWKTTEQDLKEYFSTFGEVLMVQVKKDLKTGHSKGFGFVRFTEYETQVKVMSQRHMIDGRWCDCKLPNSKQSQDEPLRSRKVFVGRCTEDMTEDELREFFSQYGDVMDVFIPKPFRAFAFVTFADDQIAQSLCGEDLIIKGISVHISNAEPKHNS", "stoichiometry N": 2},
      {"protein": "recombinant mouse LIAT1 (ligand of Ate1 protein), full length (natural protein, UniProt Q810M6 1-228, looked up, LIAT1 (ligand of Ate1), Mus musculus, full length, theoretical molecular weight ~24 kDa; Tags removed with TEV protease; also called mLIAT1; source: E. coli BL21 KRX, purified (NiNTA, TEV digestion, SEC)) MAGRGGTGAAEYGEEGEEEEEEEAREGGAEGSPGSKLPPIVGTASELAKRKVKKKKKKKKTKGSGKGDADKHHSRGRKNQPLSSSFHDILNPHKDHGLRAEPRDKEENRQTLPYSYSINHPCFAEIEDTLSSQINESLRWDGILTDPEAEKERIRIYKLNRRKRYRLMALKCFHSDPCVEESVENLPYLSDKDCSPCSKQPSSKGDHAHSYFEASKLLHPELATTVAE", "stoichiometry N": 2},
      {"protein": "human TDP-43 NLS-RRM1-RRM2 (residues 85-266) (domain or fragment, UniProt Q13148 85-266, looked up, Tags removed with TEV protease; also called hTDP-43 NLS-RRM1-RRM2; source: E. coli BL21 KRX, purified (NiNTA, TEV digestion, SEC)) MDETDASSAVKVKRAVQKTSDLIVLGLPWKTTEQDLKEYFSTFGEVLMVQVKKDLKTGHSKGFGFVRFTEYETQVKVMSQRHMIDGRWCDCKLPNSKQSQDEPLRSRKVFVGRCTEDMTEDELREFFSQYGDVMDVFIPKPFRAFAFVTFADDQIAQSLCGEDLIIKGISVHISNAEPKHNS", "stoichiometry N": 2}
    ]}
  ]
}
